Positions count from the first letter of the chain named. In names and notes the source's numbering stands. Values belong to the molecule of their own block, whether it stands above or below them.
T1: BICD2 aa 630–800 (mouse, UniProt Q921C5-1 630-800)
T1 construct: Bicd2 (Bicaudal D2), mouse, aa 630–800, contains the entire predicted CC3 domain; cloned into pet28a (NdeI, XhoI); also called Ms BICD2 aa 630–800
T1 sequence (looked up): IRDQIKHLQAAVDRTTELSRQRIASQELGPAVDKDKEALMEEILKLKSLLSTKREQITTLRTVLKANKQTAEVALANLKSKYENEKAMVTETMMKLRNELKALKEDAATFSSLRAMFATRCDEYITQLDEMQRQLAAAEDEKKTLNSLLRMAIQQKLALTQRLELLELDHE

B1: BICD2-CC3 (aa 711–800), His6-tagged (domain or fragment, mouse, UniProt Q921C5-1 711-800, looked up)
chain: YENEKAMVTETMMKLRNELKALKEDAATFSSLRAMFATRCDEYITQLDEMQRQLAAAEDEKKTLNSLLRMAIQQKLALTQRLELLELDHE
notes: also called Ms BICD2-CC3; source: E. coli LOBSTR-BL21(DE3)-RIL, purified (Ni-NTA)
B2: BICD2-CC3 (residues 711–800), His6 tag removed (domain or fragment, mouse, UniProt Q921C5-1 711-800, looked up)
chain: B1 chain
B3: GST-His6-BICD2-CT (aa 630–820) wildtype, Q921C5-1 T699M (protein)
chain: IRDQIKHLQAAVDRTTELSRQRIASQELGPAVDKDKEALMEEILKLKSLLSTKREQITTLRTVLKANKQMAEVALANLKSKYENEKAMVTETMMKLRNELKALKEDAATFSSLRAMFATRCDEYITQLDEMQRQLAAAEDEKKTLNSLLRMAIQQKLALTQRLELLELDHEQTRRGRSKAASKAKPASPSL
B4: GST-His6-BICD2-CT (aa 630–820) wildtype, Q921C5-1 L679R (protein)
chain: B3 chain with L50R, M70T
B5: GST-tagged RanBP2 fragment (BICD2 binding domain, aa 2148–2240), on glutathione Sepharose (domain or fragment, human, UniProt P49792 2148-2240, looked up)
chain: DIPLQTPHKLVDTGRAAKLIQRAEEMKSGLKDFKTFLTNDQTKVTEEENKGSGTGAAGASDTTIKPNPENTGPTLEWDNYDLREDALDDSVSS
notes: GST fusion from the pGEX-6P-1 vector; also called GST-RanBP2; BBD; source: E. coli, purified on glutathione Sepharose, not eluted

Key:
[1] = target: GST-His6-BICD2-CT (aa 630–820) E770G (mouse) (UniProt Q921C5); assay: pull-down; GST-His6-BICD2-CT WT or mutant on glutathione magnetic beads, incubated 3 hrs at 4°C with untransfected or GFP-Nesprin-2 expressing HeLaM lysate (RIPA buffer); immunoblot with anti-RanBP2, anti-GFP and anti-GST, signal ratio normalised to wildtype
[2] = target: GST-tagged Nesprin-2 fragment (N2G SR 52–56), on glutathione Sepharose (mouse) (UniProt Q6ZWQ0); assay: pull-down; GST-RanBP2 or GST-Nesprin-2 held on glutathione Sepharose (not eluted), purified His6-tagged BICD2 fragment added to the column, washed, eluted; Coomassie-stained SDS-PAGE, bands quantified (3 sets)
[3] = target: Purified Nesprin-2 fragment (N2G SR 52–56), used in size exclusion chromatography (mouse) (UniProt Q6ZWQ0); assay: SEC; pairwise mixtures, Nesprin-2 or RanBP2 with BICD2-CC3 WT or mutant at 1:2; 1.3 mg Nesprin-2, 0.2 mg RanBP2, 0.4 mg BICD2-CC3; Superdex 200 Increase 10/300 GL; 20 mM HEPES pH 7.5, 150 mM NaCl, 0.5 mM TCEP; bands quantified (Fig 6C-6G, S3, S6)
[4] = target: T2, RanBP2 fragment (aa 2148–2240), GST cleaved (human, UniProt P49792 2148-2240); assay: SEC; competition: Nesprin-2, RanBP2 and BICD2-CC3 WT or mutant mixed at 1:1:2 molar ratio; Superdex 200 Increase 10/300 GL; 20 mM HEPES pH 7.5, 150 mM NaCl, 0.5 mM TCEP (Fig 6L, 6M, S3I, S3J); details: both partners purified
T2 construct: expressed as GST fusion from the pGEX-6P-1 vector; also called Hs RanBP2 (aa 2148–2240); BBD

[5] = target: B5; assay: pull-down; GST-RanBP2 or GST-Nesprin-2 held on glutathione Sepharose (not eluted), purified His6-tagged BICD2 fragment added to the column, washed, eluted; Coomassie-stained SDS-PAGE, bands quantified (3 sets); details: both partners purified
[6] = target: T2, RanBP2 fragment (aa 2148–2240), GST …; assay: SEC; pairwise mixtures, equimolar; Superdex 200 Increase 10/300 GL; 20 mM HEPES pH 7.5, 150 mM NaCl, 0.5 mM TCEP, 1 mM MgCl2; 1.3 mg Nesprin-2, 0.2 mg RanBP2, 0.2 mg BICD2-CC3; fractions on SDS-PAGE (Fig 2D, 2E); details: both partners purified
[7] = target: GFP tagged Nesprin-2 fragment (GFP-N2G SR), Q6ZWQ0; assay: GST pull-down with immunoblot quantification; details: chain shown with the change; GFP-Nesprin-2 expressing HeLaM cell lysate; n = 3; parent: est. 1.0; read off a plot
[8] = target: T1, BICD2 aa 630–800; assay: pull-down; GST-RanBP2 or GST-Nesprin-2 held on glutathione Sepharose (not eluted), purified His6-tagged BICD2 fragment added to the column, washed, eluted; Coomassie-stained SDS-PAGE, bands quantified (3 sets); details: both partners purified

fold change in GFP-Nesprin-2 binding against wildtype BICD2-CT [1]: 6 fold
Molecule: GFP tagged Nesprin-2 fragment (GFP-N2G SR) (from UniProt Q6ZWQ0 1-6874) (domain or fragment)

amount of bound molecules compared to the longer fragments (aa 630–800 and 711–800) [2]: 73%
Molecule: BICD2 aa 750–800 (from UniProt Q921C5-1 750-800) (domain or fragment)

percent of BICD2-CC3 that co-elutes with Nesprin-2 [3]: 23%
Molecule: BICD2-CC3 (aa 711–800), His6-tagged (from UniProt Q921C5-1 711-800) (domain or fragment)

percent of BICD2-CC3 that co-elutes with Nesprin-2 [3]: 94%
Molecule: BICD2-CC3 (aa 711–800) F739I/R743C (from UniProt Q921C5-1 711-800) (domain or fragment)

Molecule: B1
binding result [4]: binds | binding result [5]: binds

Molecule: B2
binding result [6]: binds

Molecule: B3
ratio to parent [7]: 0.53

Molecule: B4
ratio to parent [7]: 2.7

Molecule: B5
binding result [8]: binds
